One block for each molecule: values may come before it. Where a SMILES comes first, the peptide text is derived from it. Where no end group is shown, it is not given here.
Experiments:
Fas = target: T1, Fas (Homo sapiens, UniProt P25445); experiment: Binding of Alexa647-labeled peptides to Fas-expressing Jurkat cell line; details: Jurkat cell line always expressing Fas; Alexa647-labeled peptide
T1 construct: A Jurkat cell line, in which Fas is always expressed; host or cells: Jurkat
T1 sequence (P25445 26-335): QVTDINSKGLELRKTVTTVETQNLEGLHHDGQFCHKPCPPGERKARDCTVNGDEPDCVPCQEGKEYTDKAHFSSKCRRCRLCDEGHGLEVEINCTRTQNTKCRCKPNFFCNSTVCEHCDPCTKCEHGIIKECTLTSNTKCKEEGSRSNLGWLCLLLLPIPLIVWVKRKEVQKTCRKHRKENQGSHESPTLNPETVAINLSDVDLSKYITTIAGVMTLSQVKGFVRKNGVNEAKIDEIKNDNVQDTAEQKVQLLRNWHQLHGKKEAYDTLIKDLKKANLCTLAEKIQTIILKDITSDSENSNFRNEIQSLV
Description: A Jurkat cell line which is a human blood cancer cell line and a 3T3L1 cell line which is a murine adipocyte were purchased from ATCC (USA), and the Jurkat cell line was cultured in an RPMI culture medium containing 10% fetal bovine serum (FBS), 1% penicillin, 1% streptomycin, and 25 mM glucose.
A Jurkat cell line, in which Fas is always expressed, was treated with an FITC-labeled Fas antibody and treated with Alexa647-labeled FBP-8, FBP-A, FBP-7 or control peptide (YCNSTVCY; CtrFBP).

obesity model mice = experiment: TUNEL staining of dead cells, obesity model mice, intravenous FBP-8; assay type: in vivo, C57BL/6 mice; details: intravenous twice a week for 5 weeks
Description: All animal experiments performed for the present invention were approved by the Institutional Animal Care and Use Committee of Hanyang University. […] Thereafter, depending on the experimental group, 60 μg/one time of FBP8 were administered by intravenous injection twice a week for a total of 5 weeks (FIG. 13), or FBP7 was administered by subcutaneous injection twice a day.
Furthermore, a terminal deoxynucleotidyl transferase dUTP nick end labeling (TUNEL) analysis for each tissue was performed with an in situ cell death detection kit (Millipore, USA). Thereafter, the fluorescence signals were analyzed under a TCS-SP5 confocal microscope by staining the nuclei with Hoechst 33342, and the fluorescence signals of each cell were analyzed with the Image J program.
Obesity model mice were produced by feeding normal mice a high fat diet for 8 weeks, and FBP-8 was administered by intravenous injection twice a week for a total of 5 weeks (FIG. 13). After five weeks, the obesity model mice were sacrificed to isolate white adipose tissues and liver tissues and analyze the proportion of dead cells by TUNEL staining.

3T3L1 cell line = experiment: Apoptosis level in 3T3L1 cell line treated with FasL and peptide (annexin V flow cytometry); assay type: cell-based, murine; details: differentiated 3T3L1 treated with Fas ligand and peptide
Description: The 3T3L1 cell line was cultured in a DMEM culture medium containing 10% FBS, 1% penicillin, 1% streptomycin, and 25 mM glucose. The 3T3L1 cell line was aliquoted into the above DMEM culture solution at a concentration of 2×10^5 cells/ml to induce adipocyte maturation for 3 days, and then replaced with a culture solution containing insulin to induce adipocyte maturation again for 3 days. Thereafter, the 3T3L1 cell line was further cultured in the above DMEM culture solution for 2 days to achieve complete maturation of adipocytes.
The 3T3L1 cell line was treated with a Fas ligand (FasL) at a concentration of 500 ng/ml to induce apoptosis, and FBP signal blocking peptides (FBP-8. FBP-A and FBP-7) and CtrFBP bound to Alexa647 were treated, respectively. After 4 hours of peptide treatment, cells were washed with DPBS and treated with FITC-bound annexin V (BD Pharmingen) to analyze the apoptosis inhibitory effect by a flow cytometer.

obese person = details: in vivo; cited from earlier work
[1] = Stability of peptides in sera; assay type: in vitro ADME; details: compared among cyclic FBP-8, linear FBP-8 and FBP-7
[2] = target: T2, Fas on Jurkat cell line (human blood cancer cell line in which Fas is always expressed) (human, UniProt P25445 26-335); experiment: cell-based or functional assay
T2 sequence (looked up): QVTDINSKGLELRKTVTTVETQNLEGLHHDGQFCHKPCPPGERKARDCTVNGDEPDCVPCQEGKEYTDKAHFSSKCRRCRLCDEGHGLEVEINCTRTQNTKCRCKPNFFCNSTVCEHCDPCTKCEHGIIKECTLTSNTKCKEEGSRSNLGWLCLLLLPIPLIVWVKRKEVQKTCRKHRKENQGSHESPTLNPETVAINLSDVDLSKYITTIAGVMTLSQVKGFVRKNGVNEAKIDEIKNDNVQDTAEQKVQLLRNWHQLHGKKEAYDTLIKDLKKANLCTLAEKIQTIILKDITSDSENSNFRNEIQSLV

Molecule: YCNSTVCY (control peptide) [CtrFBP, control peptide used as negative control, reference compound]
- binding to Jurkat cells (Alexa647 signal) (Fas): hardly bound to Jurkat cells
- proportion of dead cells in liver tissue (TUNEL) (obesity model mice): 17+7.98%
- proportion of dead cells in white adipose tissue (TUNEL) (obesity model mice): 51±2.98%
- apoptosis level (3T3L1 cell line): 23±5.12%

Molecule: CCCCCCCCCCCCCCCC(=O)N[C@@H](CCC(=O)NCCCC[C@H](NC(=O)[C@H](C)NC(=O)[C@H](C)NC(=O)[C@H](CCC(N)=O)NC(=O)CNC(=O)[C@H](CCC(=O)O)NC(=O)[C@H](CC(C)C)NC(=O)[C@H](Cc1ccc(O)cc1)NC(=O)[C@H](CO)NC(=O)[C@H](CO)NC(=O)[C@@H](NC(=O)[C@H](CC(=O)O)NC(=O)[C@H](CO)NC(=O)[C@@H](NC(=O)[C@H](Cc1ccccc1)NC(=O)[C@@H](NC(=O)CNC(=O)[C@H](CCC(=O)O)NC(=O)[C@H](C)NC(=O)[C@@H](N)Cc1cnc[nH]1)[C@@H](C)O)[C@@H](C)O)C(C)C)C(=O)N[C@@H](CCC(=O)O)C(=O)N[C@@H](Cc1ccccc1)C(=O)N[C@H](C(=O)N[C@@H](C)C(=O)N[C@@H](Cc1c[nH]c2ccccc12)C(=O)N[C@@H](CC(C)C)C(=O)N[C@H](C(=O)N[C@@H](CCCNC(=N)N)C(=O)NCC(=O)N[C@@H](CCCNC(=N)N)C(=O)NCC(=O)O)C(C)C)[C@@H](C)CC)C(=O)O [liraglutide]
- side effects (obese person): nausea, vomiting, diarrhea, and constipation

B1: Fas Blocking Peptide (FBP or FBP-8) (peptide)
peptide: YCDEHFCY
modifications: cysteine pairing not given here; also: Alexa647 or Alexa 488 label, attachment site not given here
- apoptosis level of Jurkat cells treated with Fas ligand (FasL) and peptide [2]: 17%

B2: Control Peptide (CTRP) (peptide)
peptide: YCNSTVCY
modifications: cysteine pairing not given here; also: Alexa647 label, attachment site not given here
- apoptosis level of Jurkat cells treated with Fas ligand (FasL) and peptide [2]: 31%

More lines, now with the values ahead:

- binding to Jurkat cells (Alexa647 signal) (Fas): bound to Jurkat cells at similar levels
Molecule: YCDEHFAY (Fas binding peptide-A (FBP-A))

- serum stability [1]: the best
Molecule: N[C@@H](Cc1ccc(O)cc1)C(=O)N[C@@H](CS)C(=O)N[C@@H](CC(=O)O)C(=O)N[C@@H](CCC(=O)O)C(=O)N[C@@H](Cc1c[nH]cn1)C(=O)N[C@@H](Cc1ccccc1)C(=O)N[C@@H](Cc1ccc(O)cc1)C(=O)O [FBP-7, YCDEHFY] (H-YCDEHFY-OH; N-terminus and C-terminus assumed)

- apoptosis level of Jurkat cells treated with Fas ligand (FasL) and peptide [2]: 14%
Molecule: YCDEHFY (also: Alexa647 label, attachment site not given here) [Fas Blocking Peptide 7 (FBP7)]

- apoptosis level of Jurkat cells treated with Fas ligand (FasL) and peptide [2]: 15%
Molecule: YCDEHFAY (also: Alexa647 label, attachment site not given here) [Fas Blocking Peptide A (FBPA)]
